In publication PMC6842113:

Target: PSD-95 PDZ1 mutant (ED6N) (UniProt P78352)
Assay: ITC

PSD-95 PDZ1 mutant (ED6N), sequence (P78352 60-151, change not shown): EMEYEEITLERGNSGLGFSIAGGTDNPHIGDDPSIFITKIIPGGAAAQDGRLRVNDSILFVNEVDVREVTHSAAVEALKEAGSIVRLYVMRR

B1: Stg_CT WT (domain or fragment)
chain: DRHKQLRATARATDYLQASAITRIPSYRYRYQRRSRSSSRSTEPSHSRDASPVGVKGFNTLPSTEISMYTLSRDPLKAATTPTATYNSDRDNSFLQVHNCIQKDSKDSLHANTANRRTTPV
Q: With B1 as the binder, how does the fold weakening of binding against PDZ1 WT read?
A: 8 fold
